Sequences and labels used below:
B1: Fab 5360 (Fab, V domains shown)
VH: EVQLVESGGGLVQPGGSLRLSCAASGYSITSGHYWNWIRQAPGKGLEWVSGISGDGSSTYYADSVKGRFTISRDNSKNTLYLQLNSLRAEDTAVYYCARGGSDAVLGDWFAYWGQGTLVTVSS
VL: DIQLTQSPSSLSASVGDRVTITCRASQSISSYLAWYQQKPGKAPKLLIYDASNLETGVPSRFSGSGSGTDFTLTISSLQPEDFATYYCQQGYSTWTFGQGTKVEIKR
notes: Fab from E. coli; also called VH28/VL28
B2: Fab 5409 (Fab, V domains shown)
VH: B1 VH with T30S, Y34H, N36A, G51V, D55S, G100E, A104T
VL: B1 VL with S28G
notes: Fab from E. coli; also called VH37/VL37
B3: Fab 5404 (Fab, V domains shown)
VH: EVQLVESGGGLVQPGGSLRLSCAASGYSISSGYHWAWIRQAPGKGLEWIGEIYHSGSTYYSPSLKSRVTISRDNSKNTLYLQLNSLRAEDTAVYYCARSPYYYGVFDYWGQGTLVTVSS
VL: DIQLTQSPSSLSASVGDRVTITCSASSRVGSVYWYQQKPGKAPKLLIYDASNLETGVPSRFSGSGSGTDFTLTISSLQPEDFATYYCQQYTHDPVTFGQGTKVEIKR
notes: Fab from E. coli; also called VH34/VL34
B4: Fab 4139 (Fab, V domains shown)
VH: EVQLVESGGGLVQPGGSLRLSCAASGYTFTGYAIHWVRQAPGKGLEWVSAISGDGGSTYYADSVKGRFTISRDNSKNTLYLQLNSLRAEDTAVYYCARGYRGYFDYWGQGTLVTVSS
VL: DIQLTQSPSSLSASVGDRVTITCRASESVTSTYLAWYQQKPGKAPKLLIYDASNLETGVPSRFSGSGSGTDFTLTISSLQPEDFATYYCQQYSDWPPTFGQGTKVEIKR
notes: Fab from E. coli; also called VH8/VL8
B5: Fab 7097 (Fab, V domains shown)
VH: B1 VH with T30S, Y34H, N36D, G51Y, D55A, S57D, S58T, G100E
VL: DIQLTQSPSSLSASVGDRVTITCRASQGISSYLAWYQQKPGKAPKLLIYDASNLETGVPSRFSGSGSGTDFTLTISSLQPEDFATYYCQQYYSTPLTFGQGTKVEIKR
notes: Fab from E. coli; also called VH49/VL49
B6: Fab 5371 (Fab, V domains shown)
VH: EVQLVESGGGLVQPGGSLRLSCAASGFSLSTSGVGVAWIRQAPGKGLEWVSYISGDGGSTYYADSVKGRFTISRDNSKNTLYLQLNSLRAEDTAVYYCAREGSDVVAGDWFAYWGQGTLVTVSS
VL: B1 VL with S28D, Y32V, N53S, T56S, S93Q, T94I
notes: Fab from E. coli; also called VH33/VL33
B7: Fab 5341 (Fab, V domains shown)
VH: B1 VH with Y34H, N36A, G51A, S58T, G100E, D103T, L106T
VL: DIQLTQSPSSLSASVGDRVTITCSASSRVGYVHWYQQKPGKAPKLLIYDASSLESGVPSRFSGSGSGTDFTLTISSLQPEDFATYYCQQGYYTWTFGQGTKVEIKR
notes: Fab from E. coli; also called VH20/VL20
B8: Fab 5348 (Fab, V domains shown)
VH: EVQLVESGGGLVQPGGSLRLSCAASGFSLSTGGVAVGWIRQAPGKGLEWVSGISGDGGTTYYADSVKGRFTISRDNSKNTLYLQLNSLRAEDTAVYYCTREDYGPHAYWGQGTLVTVSS
VL: B1 VL with S30T, S31T, A34N, G91S, T94Y, W95S
notes: Fab from E. coli; also called VH23/VL23
B9: Fab 4140 (Fab, V domains shown)
VH: EVQLVESGGGLVQPGGSLRLSCAASGYSISSGYHWNWIRQAPGKGLEWVSSISGSGGSTYYADSVKGRFTISRDNSKNTLYLQLNSLRAEDTAVYYCARDPNYYSSGSYFDYWGQGTLVTVSS
VL: B1 VL with S28G, S30G, Y32F, A34G, L54R, E55A, V58I, G91S, T94L
notes: Fab from E. coli; also called VH9/VL9
B10: Fab 4137 (Fab, V domains shown)
VH: EVQLVESGGGLVQPGGSLRLSCAASGYSITSGYYWGWIRQAPGKGLEWVSGISGSGSSTYYADSVKGRFTISRDNSKNTLYLQLNSLRAEDTAVYYCARGTYSFDVWGQGTLVTVSS
VL: B1 VL with S28G, Y32D, D50A, N53T, E55Q, T56S, G91Y, T94Y, W95I
notes: Fab from E. coli; also called VH7/VL7
B11: Fab 4134 (Fab, V domains shown)
VH: EVQLVESGGGLVQPGGSLRLSCAASGYSISSGHHWGWIRQAPGKGLEWVSGISGYGDTTYYADSVKGRFTISRDNSKNTLYLQLNSLRAEDTAVYYCARDPYSSGSGYFDYWGQGTLVTVSS
VL: B1 VL with S28G, Y32A, A34G, D50A, N53S, E55Q, T56S, G91S, S93Y
notes: Fab from E. coli; also called VH6/VL6
B12: Fab 7109 (Fab, V domains shown)
VH: B6 VH with A37S, D56S, G58D, S59T, V105A, A107L
VL: B5 VL
notes: Fab from E. coli; also called VH52/VL52
B13: Fab 4079 (Fab, V domains shown)
VH: EVQLVESGGGLVQPGGSLRLSCAASGFTFTGYWIHWVRQAPGKGLEWVGRIRSKTDGYTTEYAAPVKGRFTISRDNSKNTLYLQLNSLRAEDTAVYYCARLGGHWYFDVWGQGTLVTVSS
VL: B5 VL with G28S, S30G, S31R, A34N, Q89E, Y91P, Y92L, S93E, T94L, L96R
notes: Fab from E. coli; also called VH5/VL5
B14: Fab 7159 (Fab, V domains shown)
VH: EVQLVESGGGLVQPGGSLRLSCAASGFSLSTSGVGVGWIRQAPGKGLEWIGDIYHSGSTYYNPSLKSRVTISRDNSKNTLYLQLNSLRAEDTAVYYCAREGSTAVLGDWFAYWGQGTLVTVSS
VL: B5 VL with G28S, A34N, D50A, N53T, E55Q, T56S
notes: Fab from E. coli; also called VH58/VL58
B15: Fab 7128 (Fab, V domains shown)
VH: B6 VH with S32G, S59T, V105T, A107L
VL: B5 VL with Y91S
notes: Fab from E. coli; also called VH54/VL54
B16: Fab 7166 (Fab, V domains shown)
VH: B14 VH with G35A, G37A, S58N, E100G, T103D, A104T, L106V
VL: B5 VL with G28S, A34N, D50A, N53T, E55Q, T56S
notes: Fab from E. coli; also called VH60/VL60
B17: Fab 7133 (Fab, V domains shown)
VH: B6 VH with Y52S, D56Y, S59T, T80R, V105T, A107L
VL: B5 VL with I29V, S93T
notes: Fab from E. coli; also called VH56/VL56
B18: Fab 7131 (Fab, V domains shown)
VH: B6 VH with S32G, A37G, D56A, G58D, V105T, A107L
VL: B5 VL with I29V, S93T
notes: Fab from E. coli; also called VH55/VL55
B19: Fab 7135 (Fab, V domains shown)
VH: B6 VH with S32G, A37G, Y52S, D56S, V105T, A107L
VL: B5 VL with I29V, S93T
notes: Fab from E. coli; also called VH57/VL57
B20: Fab 7120 (Fab, V domains shown)
VH: B6 VH with A37G, G58D, S59T, D104T, V105T, A107L
VL: B5 VL
notes: Fab from E. coli; also called VH53/VL53
B21: Fab 7163 (Fab, V domains shown)
VH: B14 VH with G37T, G46S, N62S, T103D, L106A, A111D
VL: B5 VL with G28S, A34N, D50A, N53T, E55Q, T56S
notes: Fab from E. coli; also called VH59/VL59

Where a chain is given by its changes, count along the chain named.

One may read the Kd as the equilibrium constant for the complex coming apart. The koff is the rate constant with which the complex falls apart. The kon is a measure of how fast the partners come together.

One test has as its target T1, CD137-hisFc fusion protein (Sino Biological Cat 10041-H03H) (human, UniProt Q07011 24-186).
T1 construct: Bought; also called recombinant human CD137 (fused with human Fc and His tag); not shown: His tag and human Fc
Put plainly: BLI Octet, Fab.
Take B1: the Kd turned out to be 24 nM, the koff stood at 0.0029 s⁻¹ and the kon was 120000 M⁻¹ s⁻¹.

Regarding B2, the Kd was found to be 17 nM, the koff came out at 0.0043 s⁻¹ and the kon is 250000 M⁻¹ s⁻¹.

For the molecule B3, binding was put at a Kd of 3.3 nM, the koff was 0.0013 s⁻¹ and the on-rate constant (kon) came out at 400000 M⁻¹ s⁻¹.

For another test, the target named is T1, CD137-hisFc fusion protein (Sino …). Kind of test: BLI Octet, Fab. The source holds these as a separate data set. (In general: Biolayer interferometry detects binding as a change in optical thickness at a sensor tip.)
B4 returned a Kd of 1.65 nM, a koff of 8.17e-05 s⁻¹ and a kon of 49600 M⁻¹ s⁻¹.

Regarding B1, the affinity, expressed as Kd, was 24.1 nM; the koff was determined as 0.00289 s⁻¹; the kon turned out to be 120000 M⁻¹ s⁻¹.

B5 showed a Kd of 24.3 nM, a koff of 0.0132 s⁻¹ and a kon of 542000 M⁻¹ s⁻¹.

The molecule B6 came in with a Kd of 3.97 nM, a koff of 0.00479 s⁻¹ and a kon of 1.21e+06 M⁻¹ s⁻¹.

Take B7: the Kd was determined as 29.3 nM, the koff was found to be 0.00188 s⁻¹ and the kon was 64200 M⁻¹ s⁻¹.

For the molecule B8, the Kd is 10.2 nM, the off-rate (koff) amounted to 0.0133 s⁻¹ and the kon stood at 1.31e+06 M⁻¹ s⁻¹.

B9: the Kd is < 0.001 nM, the koff is < 1e-07 s⁻¹ and the kon came out at 25700 M⁻¹ s⁻¹.

As for B10, the Kd was < 0.001 nM, the koff was < 1e-07 s⁻¹ and the kon worked out at 85600 M⁻¹ s⁻¹.

For the molecule B11, the Kd was determined as 13 nM, the koff was 0.000769 s⁻¹ and the kon came out at 59300 M⁻¹ s⁻¹.

As to B2, binding was put at a Kd of 17 nM, the koff is 0.00427 s⁻¹ and the on-rate constant (kon) was found to be 251000 M⁻¹ s⁻¹.

B3: the Kd was 3.3 nM, the koff was 0.0013 s⁻¹ and the kon is 395000 M⁻¹ s⁻¹.

Molecule B12 displayed a Kd of 32 nM, a koff of 0.00555 s⁻¹ and a kon of 173000 M⁻¹ s⁻¹.

On to B13, for which the Kd stood at 31.5 nM, the koff came out at 0.00219 s⁻¹ and the kon came to 69300 M⁻¹ s⁻¹.

Turning to B14, the Kd was 37.9 nM, the koff was 0.00403 s⁻¹ and the kon worked out at 106000 M⁻¹ s⁻¹.

The molecule B15 showed a Kd of 39.7 nM, a koff of 0.0123 s⁻¹ and a kon of 309000 M⁻¹ s⁻¹.

For B16, the Kd turned out to be 12.4 nM, the koff worked out at 0.00429 s⁻¹ and the kon worked out at 345000 M⁻¹ s⁻¹.

B17 gave a Kd of 40.3 nM, a koff of 0.00405 s⁻¹ and a kon of 101000 M⁻¹ s⁻¹.

Molecule B18 came in with a Kd of 30.4 nM, a koff of 0.0081 s⁻¹ and a kon of 266000 M⁻¹ s⁻¹.

Take B19: the Kd was 31.7 nM, the koff was found to be 0.00322 s⁻¹ and the kon was 102000 M⁻¹ s⁻¹.

As to B20, the Kd turned out to be 34.5 nM, the koff was found to be 0.00911 s⁻¹ and the kon was found to be 264000 M⁻¹ s⁻¹.

On to B21, for which the Kd worked out at 12.6 nM, the dissociation rate constant (koff) was found to be 0.00378 s⁻¹ and the kon amounted to 299000 M⁻¹ s⁻¹.

For the origin of these results see patent US20190055314A1 (ADAGENE, published 2019).
